Where two headings read alike, the source gives them in different places. Each block holds one substance with its values, some of them ahead of it.
How the values were obtained:
[1] = target: soluble single-chain I-A^d-OVA from insect (SF9) cells (SSC1 gene in pMBSC1.2) (mouse (I-A^d); chicken (OVA peptide)); assay: I-A^d sandwich ELISA (capture M5/114, detection biotinylated AMS-32.1), cotransfection supernatant 1:4
[2] = target: Neuron Specific Enolase (NSE) in supernatant of SF9 cells infected with a recombinant Baculovirus; assay: I-A^d sandwich ELISA (capture M5/114, detection biotinylated AMS-32.1), NSE baculovirus supernatant as negative control
[3] = target: soluble single-chain I-A^d-OVA from insect (SF9) cells (SSC1 gene in pMBSC1.2) (mouse (I-A^d); chicken (OVA peptide)); assay: I-A^d sandwich ELISA (capture M5/114, detection biotinylated AMS-32.1), supernatant of virus clone C6
[4] = target: soluble single-chain I-A^d-OVA from insect (SF9) cells (SSC1 gene in pMBSC1.2) (mouse (I-A^d); chicken (OVA peptide)); assay: I-A^d sandwich ELISA (capture M5/114, detection biotinylated AMS-32.1), cotransfection supernatant 1:8
[5] = target: soluble single-chain I-A^d-OVA with EE antibody tag (SCE1) secreted by transfected NSO cells (mouse (I-A^d); chicken (OVA peptide)); assay: I-A^d sandwich ELISA (capture M5/114, detection biotinylated AMS-32.1), undiluted supernatant of E11 (SCE1 transfectant)
[6] = target: membrane-bound single-chain I-A^d-OVA (SCT1) on transfected NSO cells (mouse (I-A^d); chicken (OVA peptide)); assay: flow cytometry, FITC-conjugated AMS 32.1 (1:100) on T12 (SCT1-transfectant)
[7] = target: soluble single-chain I-A^d-OVA from insect (SF9) cells (SSC1 gene in pMBSC1.2) (mouse (I-A^d); chicken (OVA peptide)); assay: I-A^d sandwich ELISA (capture M5/114, detection biotinylated AMS-32.1), cotransfection supernatant undiluted
[8] = target: soluble single-chain I-A^d-OVA from insect (SF9) cells (SSC1 gene in pMBSC1.2) (mouse (I-A^d); chicken (OVA peptide)); assay: I-A^d sandwich ELISA (capture M5/114, detection biotinylated AMS-32.1), supernatant of virus clone F8
[9] = target: membrane-bound single-chain I-A^d-OVA (SCT1) on transfected NSO cells (mouse (I-A^d); chicken (OVA peptide)); assay: flow cytometry, FITC-conjugated AMS 32.1 (1:100) on T2 (SCT1-transfectant)
[10] = target: membrane-bound single-chain I-A^d-OVA (SCT1) on transfected NSO cells (mouse (I-A^d); chicken (OVA peptide)); assay: flow cytometry, FITC-conjugated AMS 32.1 (1:100) on T6 (SCT1-transfectant)
[11] = target: soluble single-chain I-A^d-OVA from insect (SF9) cells (SSC1 gene in pMBSC1.2) (mouse (I-A^d); chicken (OVA peptide)); assay: I-A^d sandwich ELISA (capture M5/114, detection biotinylated AMS-32.1), sc I-A^d-OVA from insect cell culture (positive control)
[12] = target: soluble single-chain I-A^d-OVA with EE antibody tag (SCE1) secreted by transfected NSO cells (mouse (I-A^d); chicken (OVA peptide)); assay: I-A^d sandwich ELISA (capture M5/114, detection biotinylated AMS-32.1), undiluted supernatant of E10 (SCE1 transfectant)
[13] = target: soluble single-chain I-A^d-OVA from insect (SF9) cells (SSC1 gene in pMBSC1.2) (mouse (I-A^d); chicken (OVA peptide)); assay: I-A^d sandwich ELISA (capture M5/114, detection biotinylated AMS-32.1), cotransfection supernatant 1:2
[14] = target: full length I-A^d/OVA 323-339 MHC class II fusion complex (pJRS165.1) expressed on NSO cells (mouse; chicken) (UniProt P04228); assay: flow cytometry, FITC-conjugated anti-IA^k control (1:100) on clone NSO/IA^d/OVA.A4
Chain of UniProt P04228 (P04228 24-256, chain 1 of 2): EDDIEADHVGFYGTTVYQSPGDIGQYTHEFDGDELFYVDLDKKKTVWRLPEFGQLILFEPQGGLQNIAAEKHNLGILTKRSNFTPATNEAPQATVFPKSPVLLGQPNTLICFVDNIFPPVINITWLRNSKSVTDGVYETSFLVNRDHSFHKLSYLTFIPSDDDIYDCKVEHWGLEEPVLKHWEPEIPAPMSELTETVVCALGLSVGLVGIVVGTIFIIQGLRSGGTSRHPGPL
Chain of UniProt P04228 (P01921 28-265, chain 2 of 2, further chain): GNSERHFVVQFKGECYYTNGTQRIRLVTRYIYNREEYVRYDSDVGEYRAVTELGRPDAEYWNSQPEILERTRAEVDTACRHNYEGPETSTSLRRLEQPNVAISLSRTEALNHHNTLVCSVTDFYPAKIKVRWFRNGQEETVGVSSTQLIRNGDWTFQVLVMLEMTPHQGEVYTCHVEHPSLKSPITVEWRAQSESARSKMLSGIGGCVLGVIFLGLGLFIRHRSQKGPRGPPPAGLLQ

[15] = target: full length I-A^d/OVA 323-339 MHC class II fusion complex (pJRS165.1) expressed on NSO cells (mouse; chicken) (UniProt P04228); assay: flow cytometry, FITC-conjugated anti-IA^k control (1:100) on clone NSO/IA^d/OVA.B4
[16] = target: full length I-A^d/OVA 323-339 MHC class II fusion complex (pJRS165.1) expressed on NSO cells (mouse; chicken) (UniProt P04228); assay: flow cytometry, FITC-conjugated anti-IA^k control (1:100) on clone NSO/IA^d/OVA.B5
[17] = target: full length I-A^d/OVA 323-339 MHC class II fusion complex (pJRS165.1) expressed on NSO cells (mouse; chicken) (UniProt P04228); assay: flow cytometry, FITC-conjugated anti-IA^k control (1:100) on clone NSO/IA^d/OVA.B2
[18] = target: murine Class II MHC molecule I-A^d on A20.1-11 cells (mouse) (UniProt P04228); assay: flow cytometry, FITC-conjugated anti-IA^k control (1:100) on A20.1 cells (+ control)
[19] = target: T cell receptor of the murine T cell hybridoma DO11.10, specific for OVA 323-339 presented by I-A^d; assay: cell-based or functional assay
[20] = target: T cell receptor of the murine T cell hybridoma DO11.10, specific for OVA 323-339 presented by I-A^d; assay: cell-based or functional assay; remark: listed apart in the source
[21] = target: membrane-bound single-chain I-A^d-OVA (SCT1) on transfected NSO cells (mouse (I-A^d); chicken (OVA peptide)); assay: flow cytometry, FITC-conjugated 10-3.6 control (1:100) on T6 (SCT1-transfectant)
[22] = target: membrane-bound single-chain I-A^d-OVA (SCT1) on transfected NSO cells (mouse (I-A^d); chicken (OVA peptide)); assay: flow cytometry, FITC-conjugated 10-3.6 control (1:100) on T12 (SCT1-transfectant)
[23] = target: membrane-bound single-chain I-A^d-OVA (SCT1) on transfected NSO cells (mouse (I-A^d); chicken (OVA peptide)); assay: flow cytometry, FITC-conjugated 10-3.6 control (1:100) on T2 (SCT1-transfectant)

Substance: AMS-32.1 anti-IA^d (Pharmingen part number 06032D) (antibody)
Absorbance (405 nm) [1]: 0.305 absorbance | Absorbance (405 nm) [2]: 0.098 absorbance | Absorbance (405 nm) [3]: 1.56 absorbance | Absorbance (405 nm) [4]: 0.165 absorbance | Absorbance (405 nm) [5]: 0.96 absorbance | Mean Fluorescence (mean fluorescence) [6]: 911 | Absorbance (405 nm) [7]: 0.857 absorbance | Absorbance (405 nm) [8]: 1.45 absorbance | Mean Fluorescence (mean fluorescence) [9]: 613 | Mean Fluorescence (mean fluorescence) [10]: 418 | Absorbance (405 nm) [11]: 2.44 absorbance | Absorbance (405 nm) [12]: 0.781 absorbance | Absorbance (405 nm) [13]: 0.524 absorbance

Substance: FITC-conjugated anti-IA^k antibody (Pharmingen), isotype matched irrelevant antibody
peak channel fluorescence [14]: 34 peak channel | peak channel fluorescence [15]: 11 peak channel | peak channel fluorescence [16]: 10 peak channel | peak channel fluorescence [17]: 14 peak channel | peak channel fluorescence [18]: 5 peak channel

Substance: isotype matched FITC-conjugated anti-I-A^k antibody, 10-3.6 (PharMingen)
Mean Fluorescence (mean fluorescence) [21]: 45.1 | Mean Fluorescence (mean fluorescence) [22]: 45.9 | Mean Fluorescence (mean fluorescence) [23]: 22

Substance: membrane-bound single-chain I-A^d-OVA (SCT1) on transfected NSO cells (peptide-MHC)
IL-2 ELISA result (Absorbance); antigen presenting cell T12 (SCT1 transfectant) [19]: 1.03 absorbance | IL-2 ELISA result (Absorbance); antigen presenting cell T2 (SCT1 transfectant) [20]: 0.758 absorbance | IL-2 ELISA result (Absorbance); antigen presenting cell T6 (SCT1 transfectant) [20]: 0.307 absorbance

Now from value to substance:

IL-2 ELISA result (Absorbance); A20+OVA 323-339 peptide (positive control) [19]: 1.45 absorbance | IL-2 ELISA result (Absorbance); A20+OVA 323-339 peptide (positive control) [20]: 1.33 absorbance
Substance: OVA 323-339 peptide presented by I-A^d on A20 cells (from UniProt P04228 24-256; P01921 28-265) (peptide-MHC)

IL-2 concentration in DO11 super; immobilized sc IA^d-OVA 78 ng/well [20]: 45 U/ml | IL-2 concentration in DO11 super; immobilized sc IA^d-OVA 156 ng/well [20]: 100 U/ml | IL-2 concentration in DO11 super; immobilized sc IA^d-OVA 312 ng/well [20]: 109 U/ml | IL-2 concentration in DO11 super; immobilized sc IA^d-OVA 625 ng/well [20]: 116 U/ml | IL-2 concentration in DO11 super; immobilized sc IA^d-OVA 1250 ng/well [20]: 126 U/ml | IL-2 concentration in DO11 super; immobilized sc IA^d-OVA 2500 ng/well [20]: 143 U/ml | IL-2 concentration in DO11 super; immobilized scIA^d-OVA 39 ng/well (extended dilution) [20]: 0 U/ml | IL-2 concentration in DO11 super; immobilized scIA^d-OVA 78 ng/well (extended dilution) [20]: 17 U/ml | IL-2 concentration in DO11 super; immobilized scIA^d-OVA 156 ng/well (extended dilution) [20]: 24 U/ml | IL-2 concentration in DO11 super; immobilized scIA^d-OVA 312 ng/well (extended dilution) [20]: 35 U/ml | IL-2 concentration in DO11 super; immobilized scIA^d-OVA 625 ng/well (extended dilution) [20]: 38 U/ml | IL-4 concentration in DO11 super; immobilized sc IA^d-OVA 78 ng/well [20]: 7 U/ml | IL-4 concentration in DO11 super; immobilized sc IA^d-OVA 156 ng/well [20]: 10 U/ml | IL-4 concentration in DO11 super; immobilized sc IA^d-OVA 312 ng/well [20]: 16 U/ml | IL-4 concentration in DO11 super; immobilized sc IA^d-OVA 625 ng/well [20]: 15 U/ml | IL-4 concentration in DO11 super; immobilized sc IA^d-OVA 1250 ng/well [20]: 20 U/ml | IL-4 concentration in DO11 super; immobilized sc IA^d-OVA 2500 ng/well [20]: 23 U/ml | IL-r [IL-4] concentration in DO11 super; immobilized scIA^d-OVA 39 ng/well (extended dilution) [20]: 0 U/ml | IL-r [IL-4] concentration in DO11 super; immobilized scIA^d-OVA 78 ng/well (extended dilution) [20]: 0.8 U/ml | IL-r [IL-4] concentration in DO11 super; immobilized scIA^d-OVA 156 ng/well (extended dilution) [20]: 0.9 U/ml | IL-r [IL-4] concentration in DO11 super; immobilized scIA^d-OVA 312 ng/well (extended dilution) [20]: 1.5 U/ml | IL-r [IL-4] concentration in DO11 super; immobilized scIA^d-OVA 625 ng/well (extended dilution) [20]: 2 U/ml
Substance: soluble single-chain I-A^d-OVA from insect (SF9) cells (SSC1 gene in pMBSC1.2) (peptide-MHC)

Reference: patent EP0997477B1
